# Target: GFP-AtEH1/Pan1 (Arabidopsis) (UniProt Q9LM78)
# Assay: FRET or BRET; FRET-FLIM in N. benthamiana leaf cells transiently co-expressing the GFP donor and RFP acceptor fusions; GFP-AtEH1/Pan1 alone as donor control; whole field images
# Chain of UniProt Q9LM78 (Q9LM78 entry or part of it): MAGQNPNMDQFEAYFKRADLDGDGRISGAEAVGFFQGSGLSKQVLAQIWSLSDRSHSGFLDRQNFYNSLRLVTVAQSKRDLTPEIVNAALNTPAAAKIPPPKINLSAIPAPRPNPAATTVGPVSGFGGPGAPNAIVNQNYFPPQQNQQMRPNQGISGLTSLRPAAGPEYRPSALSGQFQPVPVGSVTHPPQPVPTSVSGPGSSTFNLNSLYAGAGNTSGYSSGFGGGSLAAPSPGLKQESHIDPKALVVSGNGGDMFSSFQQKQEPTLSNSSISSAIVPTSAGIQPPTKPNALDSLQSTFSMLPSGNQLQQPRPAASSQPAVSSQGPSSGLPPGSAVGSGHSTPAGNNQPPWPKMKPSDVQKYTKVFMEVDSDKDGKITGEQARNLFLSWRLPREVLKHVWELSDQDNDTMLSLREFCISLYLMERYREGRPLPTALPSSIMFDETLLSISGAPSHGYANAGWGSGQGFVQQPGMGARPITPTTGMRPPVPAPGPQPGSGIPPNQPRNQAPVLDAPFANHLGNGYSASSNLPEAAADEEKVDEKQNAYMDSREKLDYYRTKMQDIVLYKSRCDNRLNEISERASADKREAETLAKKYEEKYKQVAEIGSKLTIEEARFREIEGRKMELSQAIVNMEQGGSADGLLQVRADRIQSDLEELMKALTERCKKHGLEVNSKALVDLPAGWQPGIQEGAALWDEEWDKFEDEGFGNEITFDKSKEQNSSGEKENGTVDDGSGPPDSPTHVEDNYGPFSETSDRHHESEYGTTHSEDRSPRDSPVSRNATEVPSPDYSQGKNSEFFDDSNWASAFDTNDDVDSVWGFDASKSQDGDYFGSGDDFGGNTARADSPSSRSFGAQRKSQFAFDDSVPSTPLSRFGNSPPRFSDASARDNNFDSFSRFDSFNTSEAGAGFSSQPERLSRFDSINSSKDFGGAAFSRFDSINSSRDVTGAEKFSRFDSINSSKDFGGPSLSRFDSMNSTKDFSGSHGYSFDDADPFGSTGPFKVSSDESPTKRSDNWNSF
substance,measurement,value
RFP-AtEH2/Pan1 (natural protein),fluorescence life-time of the GFP donor in the presence of the RFP acceptor,2.45 ns

# Reference: PMC6853982
